Substitutions are numbered along the chain they refer to.
B1: humVHH_S56A (VHH)
VHH: EVQLVESGGGLVQPGGSLRLSCAASGRTFSEYAMGWFRQAPGKEREFVATISWSGGATYYTDSVKGRFTISRDNAKNTVYLQMNSLRPEDTAVYYCAAAGLGTVVSEWDYDYDYWGQGTLVTVSS
B2: humVHH (VHH)
VHH: B1 VHH with A57S

Tests used:
[1] = biological target: mouse IgG1 Fc fused SARS-CoV-1 RBD (Sino Biological, 40150-V05H) (SARS-CoV-1, isolate not named, UniProt P59594); assay: BLI
[2] = biological target: monomeric human Fc-fused SARS-CoV-2_RBD-SD1 (SARS-CoV-2 (Wuhan-Hu-1), UniProt P0DTC2); assay: BLI
[3] = biological target: SARS-CoV-2 spike expressed on the surface of HEK293 cells (SARS-CoV-2 (Wuhan-Hu-1), UniProt P0DTC2); assay: flow cytometry on cells

Row | Binder | binding result [1] | fold increase in affinity over humVHH [2] | binding result [2] | binding result [3]
1 | B1 | binds | ~7 fold | – | –
2 | B2 | – | – | binds | binds
